Data set [1] has as its target T1, VDR;RXRα (human;human, UniProt P11473;P19793 1-427;1-462, |). In words: EMSA. Background: In EMSA bound probe runs differently from free probe, usually more slowly.
Data set [2] deals with T1, VDR;RXRα. The data set is described as follows: competition.

The record followed here is paper PMC2749287.

T1 sequence (P11473 whole entry, chain 1 of 2): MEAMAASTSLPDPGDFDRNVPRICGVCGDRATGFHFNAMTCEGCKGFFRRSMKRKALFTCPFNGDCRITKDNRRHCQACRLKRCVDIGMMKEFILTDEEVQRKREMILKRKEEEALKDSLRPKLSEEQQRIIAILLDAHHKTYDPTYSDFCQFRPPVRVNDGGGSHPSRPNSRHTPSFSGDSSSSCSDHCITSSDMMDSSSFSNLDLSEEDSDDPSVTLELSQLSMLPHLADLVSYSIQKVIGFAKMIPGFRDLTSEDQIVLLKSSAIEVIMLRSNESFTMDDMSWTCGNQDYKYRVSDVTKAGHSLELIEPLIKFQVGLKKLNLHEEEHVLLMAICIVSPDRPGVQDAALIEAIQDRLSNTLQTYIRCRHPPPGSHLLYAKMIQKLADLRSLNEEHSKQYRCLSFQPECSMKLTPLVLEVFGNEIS
T1 sequence (P19793 whole entry, chain 2 of 2): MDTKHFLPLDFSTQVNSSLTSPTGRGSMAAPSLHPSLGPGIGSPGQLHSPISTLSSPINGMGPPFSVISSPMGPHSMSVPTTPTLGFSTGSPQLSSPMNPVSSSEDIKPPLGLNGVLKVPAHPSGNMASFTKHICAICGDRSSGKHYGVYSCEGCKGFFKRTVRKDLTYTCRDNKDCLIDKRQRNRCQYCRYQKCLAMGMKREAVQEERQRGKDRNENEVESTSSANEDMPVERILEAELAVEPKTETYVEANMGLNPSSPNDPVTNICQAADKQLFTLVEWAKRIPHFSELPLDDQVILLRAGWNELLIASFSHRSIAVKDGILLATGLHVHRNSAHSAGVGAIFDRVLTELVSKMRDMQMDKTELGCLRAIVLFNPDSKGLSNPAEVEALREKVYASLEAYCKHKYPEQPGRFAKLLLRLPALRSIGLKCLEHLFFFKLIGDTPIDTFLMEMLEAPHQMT

B1: wild-type VDRE2 probe, hCYP24A1 promoter (dsDNA)
DNA 1: CGAAGCACACCCGGTGAACTCCGGGCTT
DNA 2: AAGCCCGGAGTTCACCGGGTGTGCTTCG
Consider B1, for which the binding result in the data set with VDR;RXRα [1] is on record as “binds”.

B2: unlabeled wild-type VDRE2 competitor (dsDNA)
DNA 1: CGAAGCACACCCGGTGAACTCCGGGCTT
DNA 2: AAGCCCGGAGTTCACCGGGTGTGCTTCG
Turning to B2, the binding result in the data set with VDR;RXRα [2] is on record as “binds”.
